In patent US20060286609A1 (BIOCHECK, published 2006):
Residue numbers refer to the chain shown, from its start. Each block holds one molecule with its values, some of them ahead of it.

Key:
[1] = target: Human Id1: Histidine (human) (UniProt P41134); experiment: ELISA, coated antigen, Ab 0.025 ug/ml
Mouse Id4: Histidine [2] = target: T1, Mouse Id4: Histidine (mouse, UniProt P41139 1-161, limits assumed); experiment: ELISA, coated antigen, Ab 0.025 ug/ml
T1 construct: E. coli fusion protein (vector pGW07); also called m-Id4: His; not shown: His-tag
T1 sequence (looked up): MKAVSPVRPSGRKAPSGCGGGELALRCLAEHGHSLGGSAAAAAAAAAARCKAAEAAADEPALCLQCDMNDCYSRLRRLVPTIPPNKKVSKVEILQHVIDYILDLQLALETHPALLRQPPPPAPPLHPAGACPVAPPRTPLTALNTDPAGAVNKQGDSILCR

Human Id4: Histidine [3] = target: T2, Human Id4: Histidine (human, UniProt P47928 1-161, limits assumed); experiment: ELISA, coated antigen, Ab 0.025 ug/ml
T2 construct: E. coli fusion protein (vector pGW07); also called h-Id4: His; not shown: His-tag
T2 sequence (looked up): T1 sequence (looked up) with L125H, A130T, V133A

Mouse Id1: Histidine [4] = target: T3, Mouse Id1: Histidine (mouse, UniProt P20067-2 1-148); experiment: ELISA, coated antigen, Ab 0.025 ug/ml
T3 construct: E. coli fusion protein (vector pGW07); also called m-Id1-His; not shown: His-tag
T3 sequence: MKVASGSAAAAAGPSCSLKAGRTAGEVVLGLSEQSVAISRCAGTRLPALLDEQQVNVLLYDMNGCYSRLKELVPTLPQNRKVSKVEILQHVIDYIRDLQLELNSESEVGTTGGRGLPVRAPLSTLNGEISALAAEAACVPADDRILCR

Mouse Id2: Histidine [5] = target: T4, Mouse Id2: Histidine (mouse, UniProt P41136 1-134, limits assumed); experiment: ELISA, coated antigen, Ab 0.025 ug/ml
T4 construct: E. coli fusion protein (vector pGW07); also called m-Id2: His; not shown: His-tag
T4 sequence (looked up): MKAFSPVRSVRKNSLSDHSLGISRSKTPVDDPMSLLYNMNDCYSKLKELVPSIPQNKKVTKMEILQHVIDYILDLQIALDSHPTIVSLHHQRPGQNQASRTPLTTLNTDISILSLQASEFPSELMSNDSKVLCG

Human Id2: Histidine [6] = target: T5, Human Id2: Histidine (human, UniProt Q02363 1-134, limits assumed); experiment: ELISA, coated antigen, Ab 0.025 ug/ml
T5 construct: E. coli fusion protein (vector pGW07); also called h-Id2: His; not shown: His-tag
T5 sequence (looked up): T4 sequence (looked up) with T60S, V131A

Mouse Id3: Histidine [7] = target: T6, Mouse Id3: Histidine (mouse, UniProt P41133 1-119, limits assumed); experiment: ELISA, coated antigen, Ab 0.025 ug/ml
T6 construct: E. coli fusion protein (vector pGW07); also called m-Id3: His; not shown: His-tag
T6 sequence (looked up): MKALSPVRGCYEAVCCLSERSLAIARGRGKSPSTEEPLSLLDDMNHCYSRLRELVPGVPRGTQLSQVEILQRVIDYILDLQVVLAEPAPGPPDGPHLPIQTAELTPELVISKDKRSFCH

Human Id3: Histidine [8] = target: T7, Human Id3: Histidine (human, UniProt Q02535 1-119, limits assumed); experiment: ELISA, coated antigen, Ab 0.025 ug/ml
T7 construct: E. coli fusion protein (vector pGW07); also called h-Id3: His; not shown: His-tag
T7 sequence (looked up): T6 sequence (looked up) with S31G, S33A, T34A, K112N

[9] = target: Human Id1: Histidine (human) (UniProt P41134); experiment: ELISA, coated antigen, Ab 0.050 ug/ml
Mouse Id4: Histidine [10] = target: T1, Mouse Id4: Histidine; experiment: ELISA, coated antigen, Ab 0.050 ug/ml
Human Id4: Histidine [11] = target: T2, Human Id4: Histidine; experiment: ELISA, coated antigen, Ab 0.050 ug/ml
Mouse Id1: Histidine [12] = target: T3, Mouse Id1: Histidine; experiment: ELISA, coated antigen, Ab 0.050 ug/ml
Mouse Id2: Histidine [13] = target: T4, Mouse Id2: Histidine; experiment: ELISA, coated antigen, Ab 0.050 ug/ml
Human Id2: Histidine [14] = target: T5, Human Id2: Histidine; experiment: ELISA, coated antigen, Ab 0.050 ug/ml
Mouse Id3: Histidine [15] = target: T6, Mouse Id3: Histidine; experiment: ELISA, coated antigen, Ab 0.050 ug/ml
Human Id3: Histidine [16] = target: T7, Human Id3: Histidine; experiment: ELISA, coated antigen, Ab 0.050 ug/ml
[17] = target: Human Id1: Histidine (human) (UniProt P41134); experiment: ELISA, coated antigen, Ab 0.100 ug/ml
[18] = target: Human Id1: Histidine (human) (UniProt P41134); experiment: ELISA, coated antigen, Ab 0.250 ug/ml
Human Id4: Histidine [19] = target: T2, Human Id4: Histidine; experiment: ELISA, coated antigen, Ab 0.250 ug/ml
Mouse Id1: Histidine [20] = target: T3, Mouse Id1: Histidine; experiment: ELISA, coated antigen, Ab 0.250 ug/ml
[21] = target: Human Id1: Histidine (human) (UniProt P41134); experiment: ELISA, coated antigen, Ab 0.500 ug/ml
[22] = target: Human Id1: Histidine (human) (UniProt P41134); experiment: ELISA, coated antigen, Ab 0.005 ug/ml
[23] = target: Human Id1: Histidine (human) (UniProt P41134); experiment: ELISA, coated antigen, Ab 0.010 ug/ml
[24] = target: Human Id1: Histidine (human) (UniProt P41134); experiment: ELISA, coated antigen, Ab 0.000 ug/ml (blank, diluent only)

Sequence of Human Id1: Histidine (human) (P41134 whole entry): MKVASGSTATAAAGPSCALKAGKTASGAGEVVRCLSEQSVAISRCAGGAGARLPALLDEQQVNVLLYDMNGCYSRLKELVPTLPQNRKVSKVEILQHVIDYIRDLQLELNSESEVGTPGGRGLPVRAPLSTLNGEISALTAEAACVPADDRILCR

A450 [1]: 1.12 A450 | A450 (Mouse Id4: Histidine [2]): 0.046 A450 | A450 (Human Id4: Histidine [3]): 0.045 A450 | A450 (Mouse Id1: Histidine [4]): 0.876 A450 | A450 (Mouse Id2: Histidine [5]): 0.049 A450 | A450 (Human Id2: Histidine [6]): 0.05 A450 | A450 (Mouse Id3: Histidine [7]): 0.047 A450 | A450 (Human Id3: Histidine [8]): 0.047 A450 | A450 [9]: 1.7 A450 | A450 (Mouse Id4: Histidine [10]): 0.049 A450 | A450 (Human Id4: Histidine [11]): 0.049 A450 | A450 (Mouse Id1: Histidine [12]): 1.39 A450 | A450 (Mouse Id2: Histidine [13]): 0.054 A450 | A450 (Human Id2: Histidine [14]): 0.048 A450 | A450 (Mouse Id3: Histidine [15]): 0.05 A450 | A450 (Human Id3: Histidine [16]): 0.047 A450 | A450 [17]: 2.17 A450 | A450 [18]: 2.88 A450 | A450 (Human Id4: Histidine [19]): 0.048 A450 | A450 (Mouse Id1: Histidine [20]): 2.57 A450 | A450 [21]: 3.02 A450 | A450 [22]: 0.31 A450 | A450 [23]: 0.569 A450 | A450 [24]: 0.05 A450
Molecule: rabbit monoclonal anti-mouse/human Id1, clone #BCH-1/#195-14 (antibody)

A450 [1]: 0.728 A450 | A450 (Mouse Id4: Histidine [2]): 0.047 A450 | A450 (Human Id4: Histidine [3]): 0.049 A450 | A450 (Mouse Id1: Histidine [4]): 0.053 A450 | A450 (Mouse Id2: Histidine [5]): 0.048 A450 | A450 (Human Id2: Histidine [6]): 0.049 A450 | A450 (Mouse Id3: Histidine [7]): 0.046 A450 | A450 (Human Id3: Histidine [8]): 0.046 A450 | A450 [9]: 1.22 A450 | A450 (Mouse Id4: Histidine [10]): 0.048 A450 | A450 (Human Id4: Histidine [11]): 0.052 A450 | A450 (Mouse Id1: Histidine [12]): 0.057 A450 | A450 (Mouse Id2: Histidine [13]): 0.05 A450 | A450 (Human Id2: Histidine [14]): 0.048 A450 | A450 (Mouse Id3: Histidine [15]): 0.052 A450 | A450 (Human Id3: Histidine [16]): 0.046 A450 | A450 [17]: 1.86 A450 | A450 [18]: 2.76 A450 | A450 (Human Id4: Histidine [19]): 0.047 A450 | A450 (Mouse Id1: Histidine [20]): 0.092 A450 | A450 [21]: 3.15 A450 | A450 [22]: 0.209 A450 | A450 [23]: 0.362 A450 | A450 [24]: 0.052 A450
Molecule: rabbit monoclonal anti-human Id1, clone #BCH-2/#5-3 (antibody)

B1: rabbit monoclonal anti-mouse Id1, clone #BCH-1/#37-2 (antibody, V domains shown)
VH: QSVEESGGRLVTPGTPLTLTCKVSGFDINSYAMDWFRQAPGKGLEWIGMMSTRGNTYYTSWAKGRFTISKTSSTTVDLKMTSLTTEDTATYFCARGGLWGPGTLVTVSS
VL: RVLTQTASPVSAAVGGTVTINCQASQSVYNGNRLGWYQLKPGQSPKELIHDASTLASGVPSRFRGSGSGTQFTLTINDVQCDDAATYYCVGSYACSTGDCNVFGGGTEVVVK
notes: Rabbit IgG from hybridoma, Protein G purified; also called m Id1 MoAb 37-2; Rabbit Monoclonal Anti-Mouse Id1 (#37-2)
A450 [1]: 0.073 A450 | A450 [9]: 0.092 A450 | A450 [17]: 0.117 A450 | A450 [18]: 0.187 A450 | A450 [21]: 0.27 A450 | A450 [22]: 0.057 A450 | A450 [23]: 0.056 A450 | A450 [24]: 0.051 A450
